Reference: US20240301385, “DNA MODIFYING ENZYMES AND ACTIVE FRAGMENTS AND VARIANTS THEREOF AND METHODS OF USE” (LIFEEDIT THERAPEUTICS, INC., published 2024)

Columns and labels:
Settings in all cases: tags: SV40 NLS, 3xFLAG N-term; nucleoplasmin NLS C-term
nAPG07433.1-APG05840 = nAPG07433.1-APG05840 (synthetic); assay: cell_activity; HEK293FT; C>G predominant; PAM SEQ 152
APG30127-L32-nAPG07433.1 = target: T1, APG30127-L32-nAPG07433.1 (synthetic); assay: cell_activity; HEK293FT; PAM SEQ 152
T1 chain: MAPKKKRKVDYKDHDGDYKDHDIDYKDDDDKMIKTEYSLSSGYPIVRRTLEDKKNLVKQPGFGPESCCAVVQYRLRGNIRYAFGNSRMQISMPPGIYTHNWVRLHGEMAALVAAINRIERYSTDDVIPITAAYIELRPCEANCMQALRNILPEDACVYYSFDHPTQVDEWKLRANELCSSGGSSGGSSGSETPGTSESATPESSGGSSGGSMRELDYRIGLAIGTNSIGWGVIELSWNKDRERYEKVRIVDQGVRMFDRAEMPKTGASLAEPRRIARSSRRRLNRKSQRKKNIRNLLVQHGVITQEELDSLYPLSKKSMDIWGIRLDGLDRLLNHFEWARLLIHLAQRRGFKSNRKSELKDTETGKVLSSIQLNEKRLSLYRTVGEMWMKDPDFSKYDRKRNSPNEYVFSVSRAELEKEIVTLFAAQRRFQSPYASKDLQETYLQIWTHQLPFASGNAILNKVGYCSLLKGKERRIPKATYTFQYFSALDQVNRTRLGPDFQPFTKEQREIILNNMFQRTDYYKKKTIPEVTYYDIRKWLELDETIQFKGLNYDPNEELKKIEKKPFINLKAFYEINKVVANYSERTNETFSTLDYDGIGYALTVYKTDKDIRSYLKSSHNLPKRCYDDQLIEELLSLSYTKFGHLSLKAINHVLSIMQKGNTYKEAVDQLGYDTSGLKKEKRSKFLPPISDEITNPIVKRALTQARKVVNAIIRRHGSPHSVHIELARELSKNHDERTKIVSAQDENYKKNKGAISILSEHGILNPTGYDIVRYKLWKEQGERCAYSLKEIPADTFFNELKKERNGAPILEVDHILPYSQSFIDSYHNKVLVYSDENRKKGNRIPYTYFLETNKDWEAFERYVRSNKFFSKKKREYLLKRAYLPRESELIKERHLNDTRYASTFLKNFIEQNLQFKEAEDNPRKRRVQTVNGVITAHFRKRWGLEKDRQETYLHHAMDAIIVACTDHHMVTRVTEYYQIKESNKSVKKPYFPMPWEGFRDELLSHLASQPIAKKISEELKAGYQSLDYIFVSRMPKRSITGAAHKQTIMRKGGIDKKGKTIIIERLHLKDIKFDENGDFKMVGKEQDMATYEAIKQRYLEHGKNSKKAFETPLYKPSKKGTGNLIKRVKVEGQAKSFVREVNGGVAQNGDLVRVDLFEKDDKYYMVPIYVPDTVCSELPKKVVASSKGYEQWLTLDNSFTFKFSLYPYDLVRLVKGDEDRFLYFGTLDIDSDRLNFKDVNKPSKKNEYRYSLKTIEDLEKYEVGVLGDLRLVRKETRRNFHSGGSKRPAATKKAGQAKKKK
Method: (§1) 500 ng of plasmid comprising an expression cassette comprising a coding sequence for each fusion protein shown in Table 3 and 500 ng of plasmid comprising an expression cassette encoding an sgRNA shown in Table 4 were co-transfected into HEK293FT cells at 75-90% confluency in 24-well plates using Lipofectamine 2000 reagent (Life Technologies). Cells were then incubated at […] for 72 h. Following incubation, genomic DNA was then extracted using NucleoSpin 96 Tissue (Macherey-Nagel) following the manufacturer's protocol. The genomic region flanking the targeted genomic site was PCR amplified using the primers in Table 4 and products were purified using ZR-96 DNA Clean and Concentrator (Zymo Research) following the manufacturer's protocol. The purified PCR products were then sent for Next Generation Sequencing on Illumina MiSeq (2×250). Results were analyzed for INDEL formation or introduction of % specific cytosine mutations.
(§2) The position of each nucleotide in the target sequence was determined. “C17” indicates, for example, a cytosine at position 17 of the target sequence. The position of each nucleotide in the target sequence was determined by numbering the first nucleotide in the target sequence closest to the PAM as position 1, and the position number increases in the 3′ direction away from the PAM sequence.

APG30129-L32-nAPG07433.1 = target: T2, APG30129-L32-nAPG07433.1 (synthetic); assay: cell_activity; HEK293FT; PAM SEQ 152
T2 chain: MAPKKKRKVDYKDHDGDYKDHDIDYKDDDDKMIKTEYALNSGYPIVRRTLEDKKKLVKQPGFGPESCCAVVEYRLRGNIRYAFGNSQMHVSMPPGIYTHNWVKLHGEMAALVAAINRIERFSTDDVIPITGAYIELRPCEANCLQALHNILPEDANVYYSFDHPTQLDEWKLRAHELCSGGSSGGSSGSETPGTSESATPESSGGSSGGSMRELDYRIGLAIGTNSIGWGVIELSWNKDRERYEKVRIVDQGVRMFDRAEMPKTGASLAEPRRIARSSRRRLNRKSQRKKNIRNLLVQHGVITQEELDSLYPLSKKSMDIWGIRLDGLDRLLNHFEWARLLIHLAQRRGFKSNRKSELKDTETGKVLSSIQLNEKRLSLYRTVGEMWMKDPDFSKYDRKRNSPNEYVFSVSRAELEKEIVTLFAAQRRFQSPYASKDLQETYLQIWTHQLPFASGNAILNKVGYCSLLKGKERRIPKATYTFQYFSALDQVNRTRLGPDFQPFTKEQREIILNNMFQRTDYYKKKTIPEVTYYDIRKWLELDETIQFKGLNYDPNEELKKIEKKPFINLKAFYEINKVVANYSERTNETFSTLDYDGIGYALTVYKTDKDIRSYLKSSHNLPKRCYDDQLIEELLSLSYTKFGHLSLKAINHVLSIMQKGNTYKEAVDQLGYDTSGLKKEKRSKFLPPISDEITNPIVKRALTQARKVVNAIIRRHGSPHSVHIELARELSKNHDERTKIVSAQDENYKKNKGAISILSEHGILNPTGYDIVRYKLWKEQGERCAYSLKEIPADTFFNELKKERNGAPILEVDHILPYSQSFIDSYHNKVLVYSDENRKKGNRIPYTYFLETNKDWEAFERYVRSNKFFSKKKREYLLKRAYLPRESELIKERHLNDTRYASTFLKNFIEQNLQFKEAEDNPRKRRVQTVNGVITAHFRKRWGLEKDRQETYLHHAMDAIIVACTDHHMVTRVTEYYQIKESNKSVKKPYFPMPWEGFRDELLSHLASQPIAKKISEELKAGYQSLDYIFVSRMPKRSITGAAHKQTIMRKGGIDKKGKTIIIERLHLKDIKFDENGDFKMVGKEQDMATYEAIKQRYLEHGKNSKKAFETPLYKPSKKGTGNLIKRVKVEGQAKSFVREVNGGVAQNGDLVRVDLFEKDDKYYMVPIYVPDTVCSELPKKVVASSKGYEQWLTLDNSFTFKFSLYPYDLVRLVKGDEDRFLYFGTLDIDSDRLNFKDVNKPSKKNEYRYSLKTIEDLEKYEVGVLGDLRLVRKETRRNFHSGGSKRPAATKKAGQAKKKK
Method: as §1, §2

B1: SGN000928 sgRNA ; SGN000928 target (ssRNA ; dsDNA)
RNA: GCUUCUACUCUUGGCUUACAACCCAGUCAUAGUUCCAUGAAAGCCAAAAGUGGCUUUGAUGUUUCUAUGAUAAGGGUUUCGGCCCGUGGCGUCGGGGAUCGCCUGCCCAUUCCGAUGGGCUUCUCCCCAUUUAUU
DNA 1: GCTTCTACTCTTGGCTTACAACCCA
DNA 2: TGGGTTGTAAGCCAAGAGTAGAAGC
activity (nAPG07433.1-APG05840): 20.9 % mutated reads

B2: SGN000186 sgRNA ; SGN000186 target (ssRNA ; dsDNA)
RNA: GGACAGUGCGCAUCUCCCUGGUCAUAGUUCCAUUAAAGCCAAAAGUGGCUUUGAUGUUUCUAUGAUAAGGGUUUCGACCCGUGGCGUCGGGGAUCGCCUGCCCAUUGAAAUGGGCUUCUCCCCAUUUAUU
DNA 1: GGACAGTGCGCATCTCCCTG
DNA 2: CAGGGAGATGCGCACTGTCC
activity (APG30127-L32-nAPG07433.1): 14.3 % mutated reads
activity (APG30129-L32-nAPG07433.1): 11.4 % mutated reads
